Reference: patent US20120282279A1 (COVX TECHNOLOGIES IRELAND, published 2012)

Target: FGF21 cell surface receptor composed of FGFR1c and β-Klotho (on the cells of the bioactivity assays) (UniProt P16092 22-822; Q99N32 1-1043, limits assumed)
Test: cell-based or functional assay

FGF21 cell surface receptor composed of FGFR1c and β-Klotho (on the cells of the bioactivity assays), sequence (P16092 22-822 limits assumed, chain 1 of 2): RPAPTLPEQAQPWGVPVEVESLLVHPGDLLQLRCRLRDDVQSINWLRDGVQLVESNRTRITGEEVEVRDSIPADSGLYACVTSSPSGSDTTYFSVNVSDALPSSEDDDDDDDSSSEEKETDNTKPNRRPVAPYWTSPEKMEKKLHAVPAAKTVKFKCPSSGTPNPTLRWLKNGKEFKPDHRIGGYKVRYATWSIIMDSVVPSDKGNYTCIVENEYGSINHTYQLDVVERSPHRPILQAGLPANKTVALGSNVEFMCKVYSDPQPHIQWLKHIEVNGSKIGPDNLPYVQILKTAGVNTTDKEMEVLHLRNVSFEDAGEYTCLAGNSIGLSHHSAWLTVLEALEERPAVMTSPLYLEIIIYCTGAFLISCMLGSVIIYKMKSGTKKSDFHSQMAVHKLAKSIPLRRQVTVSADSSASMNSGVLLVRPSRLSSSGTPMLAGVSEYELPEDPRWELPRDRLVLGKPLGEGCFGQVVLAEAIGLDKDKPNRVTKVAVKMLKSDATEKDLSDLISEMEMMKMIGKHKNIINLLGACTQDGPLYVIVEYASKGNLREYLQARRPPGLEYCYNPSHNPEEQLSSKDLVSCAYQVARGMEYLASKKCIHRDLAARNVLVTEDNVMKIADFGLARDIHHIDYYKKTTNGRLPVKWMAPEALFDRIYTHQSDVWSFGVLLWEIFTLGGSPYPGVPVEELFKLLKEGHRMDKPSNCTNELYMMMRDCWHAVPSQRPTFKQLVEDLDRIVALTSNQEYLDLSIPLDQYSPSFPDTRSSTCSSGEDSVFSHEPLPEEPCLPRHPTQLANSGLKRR
FGF21 cell surface receptor composed of FGFR1c and β-Klotho (on the cells of the bioactivity assays), sequence (Q99N32 whole entry, chain 2 of 2): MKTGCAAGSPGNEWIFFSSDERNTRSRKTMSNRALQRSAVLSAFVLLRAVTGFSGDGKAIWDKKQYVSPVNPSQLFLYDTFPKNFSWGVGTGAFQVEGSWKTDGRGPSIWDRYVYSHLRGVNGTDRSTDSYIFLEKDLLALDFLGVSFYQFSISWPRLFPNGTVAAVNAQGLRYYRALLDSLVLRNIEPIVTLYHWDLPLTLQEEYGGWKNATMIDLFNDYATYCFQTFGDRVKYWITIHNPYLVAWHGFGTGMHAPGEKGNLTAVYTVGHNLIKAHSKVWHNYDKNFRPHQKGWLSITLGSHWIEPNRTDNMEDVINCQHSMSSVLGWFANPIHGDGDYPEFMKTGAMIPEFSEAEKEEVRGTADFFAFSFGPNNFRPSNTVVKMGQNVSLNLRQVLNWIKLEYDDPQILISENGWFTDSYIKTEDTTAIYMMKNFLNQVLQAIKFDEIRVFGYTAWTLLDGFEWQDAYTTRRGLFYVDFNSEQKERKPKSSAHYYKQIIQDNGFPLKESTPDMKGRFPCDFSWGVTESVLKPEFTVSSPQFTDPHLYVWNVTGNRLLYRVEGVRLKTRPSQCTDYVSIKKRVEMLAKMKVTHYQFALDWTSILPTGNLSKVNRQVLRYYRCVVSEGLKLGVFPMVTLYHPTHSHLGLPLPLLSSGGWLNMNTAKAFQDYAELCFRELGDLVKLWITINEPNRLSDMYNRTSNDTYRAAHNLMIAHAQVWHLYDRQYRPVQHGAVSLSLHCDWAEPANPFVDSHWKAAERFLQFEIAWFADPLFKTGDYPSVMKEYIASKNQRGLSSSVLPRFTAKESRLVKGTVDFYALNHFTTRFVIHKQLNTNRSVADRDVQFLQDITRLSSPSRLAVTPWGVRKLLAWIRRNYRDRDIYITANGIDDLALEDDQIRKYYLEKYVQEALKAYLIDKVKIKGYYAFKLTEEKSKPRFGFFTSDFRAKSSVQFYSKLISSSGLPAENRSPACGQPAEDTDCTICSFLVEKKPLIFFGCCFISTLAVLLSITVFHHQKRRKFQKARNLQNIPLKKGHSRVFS

Glut1 Taqman unconjugated Protein EC50: 2.3 nM
B1: FGF21ΔH (ligand)
chain: PIPDSSPLLQFGGQVRQRYLYTDDAQQTEAHLEIREDGTVGGAADQSPESLLQLKALKPGVIQILGVKTSRFLCQRPDGALYGSLHFDPEACSFRELLLEDGYNVYQSEAHGLPLHLPGNKSPHRDPAPRGPARFLPLPGLPPAPPEPPGILAPQPPDVGSSDPLSMVGPSQGRSPSYAS
